Measured values reported in patent publication US10526416B2, “Anti-HER3 antibodies and uses of same” (Yeda Research and Development Co. Ltd., priority 2014, dated 2020).

B1: XC252: anti-HER3 mAb generated as described in Chen X, et al. (1996); heavy and light chain SEQ ID NOs: 49 and 53 (antibody, V domains shown)
VH: EVQLQQSGAELVRPGVSVKISCKGSGYTFTDYAMHWVKQSHAKSLEWIGVISTYYGDPRDNQKFKGKATMTVDKSSSTAYMELARLTSEDSAIYYCARGDYDWYAIDYWGQGTSVTVSS
VL: DVVMTQTPLSLPVSLGDQASISCRSSQSIVHSDGNTYLEWYLQKPGQSPKLLIYKVSNRFSGVPDRFSGSGSGTDFTLKISRVEAEDLGVYYCFQGSHVPPTFGGGTKLEIK
modifications: VH chain of XC252 polypeptide; VL chain of XC252 polypeptide
B2: NG83: anti-HER3 mAb; light chain CDRs SEQ ID NOs: 7-9, heavy chain CDRs 10-12 (antibody, V domains shown)
VH: QIQLVQSGPELKKRGETVKISCKASGYTFTNYGMNWVRQAPGKGLKCMGWINTYAGEPTYADDFKGRFAFSLDSSASTAYLQINNLKNEDMATYFCARGGITGAMDYWGQGTSVTVSS
VL: DVVMTQKTSSLSTSLGDRVTISCRASQDIRNYLNWYQQKPDGTVKLLIYYTSRLHSGVPSRFSGSGSGTDYSLTISDLEQEDIATYFCQQGNTLPWTFGGGTKLAIK
modifications: VH chain of NG83 polypeptide; VL chain of NG83 polypeptide

What was measured:
BxPC3 cells = experiment: MTT assay on BxPC3 cells in culture; assay type: cell-based, human; settings: 3 days
Procedure: (§1) FIGS. 15A-F show the effects of a mixture of two anti HER3 mAbs, in vivo on BxPC3 cell xenografts and in vitro. (FIGS. 15A-C) CD1-Nude mice were grafted subcutaneously with 5×10^6 BxPC3 cells. Once tumors became palpable (after 13 days), the mice were randomized into group of 8 mice and treated every 3 days for 5 weeks. The control group (CTRL) was injected intra-peritoneally (IP) with 200 μl PBS. The other groups were treated with mAb alone or in combination at a final concentration of 0.2 mg/0.2 ml of PBS per mouse. The mice were weighted once a week and the tumors measured twice a week. An average tumor size of 7-8 mice (+/−SEM) is shown. (FIGS. 15D-F) Proliferation assays using MTT were performed on BxPC-3. 5,000 cells per well were plated the day before and treated for 72 h with the indicated mAb treatment. Decreasing concentrations of the indicated mAb (alone or in combination) were used in medium supplemented with 1% serum and NRG (10 ng/ml).
To determine if the combination of NG33 mAb with another anti-HER3 mAb is more efficient than using NG33 alone, the combination of two mAbs, NG33 and XC252, was tested on several tumor cell lines, which were grafted subcutaneously (gastric: N87, lung: A549, pancreatic: BxPC3, ovarian: OVCAR-5, and head and neck: CAL-27, FIG. 14). This pilot was performed with 3 mice per group. Mice were injected twice a week with the mAb combination or with PBS. The best responder of these in vivo models for solid tumor growth was the BxPC3 xenograft model. […] This experiment was performed on 7 to 8 mice per group. The mice were treated every 3 days with PBS, each mAb alone or a mAb combination, for 5 weeks (0.2 mg/injection). […] In order to reinforce the in vivo data, the cytotoxicity of each mAb alone or in combination with NG33 was tested on BxPC3 cells in culture (FIGS. 15D, 15E and 15F). Decreasing concentrations of mAb were used and a MTT assay was performed following 3 days of treatment. […] On the contrary, XC252 used alone has a […] cytotoxic impact on BxPC3 proliferation leading to 60% inhibition of cell survival at high concentration.

NRG binding to HER3 = NRG binding to HER3 (Homo sapiens, UniProt P21860); settings: increasing mAb concentrations, 45 min at 4° C., then d2-labeled NRG
Procedure: (FIG. 9A) The indicated mAbs were checked for their capacity to compete with fluorescent dye labeled NRG. […] After washes, the labeled-NRG was added and incubated for 30 min at 4° C. Fluorescence intensity at 670 nm was determined following 3 final washes. (FIG. 9B) The ability of the mAbs to avoid NRG-induced phosphorylation of HER3, AKT and ERK, was studied with N87 cells. After 20 min treatment with the indicated mAbs (10 μg/ml) at 37° C., NRG (20 ng/ml) was added to the cells for 10 min. The cells were then lysed, and equal quantities of protein lysates were run on 9% bisacrylamide gel before immunoblotting with the indicated primary antibodies. (FIG. 9C) The capacity of mAb NG33 to avoid NRG-induced migration was checked with OVCAR-5 cells and the quantification reported in a histogram. […] Signals of triplicates were quantified. **** […] (ANOVA and post hoc tests).
Agent labeling was performed by Cisbio. […] Following 1 h incubation, the plate was washed 4 times with KREBS buffer (146 mM NaCl, 4 mM KCl, 0.5 mM MgCl2, 1 mM CaCl2, 10 mM Hepes, 1 gr/L glucose, and 1 mg/mL albumin), and the fluorescent intensity (excitation: 488 nm, emission: 610 nm) was measured using a fluorescence microplate reader. […] Finally, following two washes with KREBS buffer, the fluorescence intensity was measured at 670 nm (excitation: 620 nm). […]

BxPC3 xenografts = experiment: BxPC3 cell xenografts in CD1-Nude mice; assay type: in vivo; settings: 0.2 mg/injection IP every 3 days for 5 weeks, 7 to 8 mice per group
Procedure: as §1
All animal studies were approved by the Weizmann Institute's Review Board (IRB). Tumor bearing CD1/nude mice were randomized in groups of five-ten mice and injected subcutaneously in the right flank with cancer cells (3-5×10^6 per mouse depending on the cell line). mAbs were injected intraperitoneally at a total dose of 200 μg per mouse per injection, twice a week, for 5 weeks or until tumors reached the size of 1,500 mm^3. In experiments evaluating the effect of the TKI AZD-9291, Vehicle (Vehicle formulation: HPMC 0.5% (sigma Cat#56340), Tween80 0.1% (Sigma Cat #P8074 in water), Erlotinib at a dose of 50 mg/kg per injection, or AZD9291 at a dose of 1 or 5 mg/kg per injection were injected daily intraperitoneally. In one experiment (FIG. 16), mice were treated daily with Erlotinib at a dose of 50 mg/kg per injection until tumors reached a size of 800 mm^3 and only then were treated as indicated. Tumor volume and body weight were evaluated twice and once per week, respectively. Mice were euthanized when tumor size reached 1,500 mm^3. […] Survival of the tumor bearing mice was recorded and depicted by Kaplan-Meier analysis. […]

NRG binding to HER3, sequence (P21860 20-1342): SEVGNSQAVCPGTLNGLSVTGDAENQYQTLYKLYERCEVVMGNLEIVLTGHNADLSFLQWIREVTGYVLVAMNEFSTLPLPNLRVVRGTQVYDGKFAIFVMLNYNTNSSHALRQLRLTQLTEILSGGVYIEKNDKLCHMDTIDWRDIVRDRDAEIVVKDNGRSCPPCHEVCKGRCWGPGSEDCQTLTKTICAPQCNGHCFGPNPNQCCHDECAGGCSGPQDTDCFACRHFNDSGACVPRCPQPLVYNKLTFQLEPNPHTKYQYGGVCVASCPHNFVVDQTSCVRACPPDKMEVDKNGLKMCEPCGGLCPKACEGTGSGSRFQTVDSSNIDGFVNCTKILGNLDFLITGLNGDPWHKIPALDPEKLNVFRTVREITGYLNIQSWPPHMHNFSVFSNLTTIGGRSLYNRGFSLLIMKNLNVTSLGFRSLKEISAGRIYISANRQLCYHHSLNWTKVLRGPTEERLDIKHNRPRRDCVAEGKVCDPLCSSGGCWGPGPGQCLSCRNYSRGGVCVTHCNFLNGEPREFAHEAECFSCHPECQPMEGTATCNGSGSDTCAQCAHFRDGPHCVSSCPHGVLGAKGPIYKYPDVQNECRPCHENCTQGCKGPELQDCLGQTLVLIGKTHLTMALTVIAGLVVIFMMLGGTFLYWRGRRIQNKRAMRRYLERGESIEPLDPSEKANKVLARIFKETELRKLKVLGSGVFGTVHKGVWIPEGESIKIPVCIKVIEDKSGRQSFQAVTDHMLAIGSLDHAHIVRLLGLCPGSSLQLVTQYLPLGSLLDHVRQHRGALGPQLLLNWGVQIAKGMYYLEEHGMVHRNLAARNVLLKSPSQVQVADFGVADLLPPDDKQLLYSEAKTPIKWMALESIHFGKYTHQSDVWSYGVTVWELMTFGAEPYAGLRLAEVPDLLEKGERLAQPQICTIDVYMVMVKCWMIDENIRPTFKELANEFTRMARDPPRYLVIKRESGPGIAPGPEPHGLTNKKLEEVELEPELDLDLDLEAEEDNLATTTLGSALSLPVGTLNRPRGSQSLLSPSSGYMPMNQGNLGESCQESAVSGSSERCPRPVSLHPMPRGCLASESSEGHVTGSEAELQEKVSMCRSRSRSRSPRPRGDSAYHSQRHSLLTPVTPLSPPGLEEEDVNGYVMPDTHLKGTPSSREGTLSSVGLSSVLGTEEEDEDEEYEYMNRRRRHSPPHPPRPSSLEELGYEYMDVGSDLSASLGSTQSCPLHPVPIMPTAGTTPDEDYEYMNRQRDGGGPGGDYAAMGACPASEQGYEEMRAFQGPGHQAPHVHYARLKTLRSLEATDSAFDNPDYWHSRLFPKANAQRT

| Molecule | inhibition of cell survival (BxPC3 cells; high concentration, 1% serum, NRG 10 ng/ml) | effect on NRG binding to HER3 (NRG binding to HER3) | effect on BxPC3 xenograft tumor growth (BxPC3 xenografts) | effect on BxPC3 proliferation/survival (in words) (BxPC3 cells) |
| --- | --- | --- | --- | --- |
| B1 | 60% | slightly enhanced NRG binding | no statistically significant ability to decrease tumor growth |  |
| B2 |  | did not disturb NRG binding | no statistically significant ability to decrease tumor growth | did not interfere with cell proliferation |
